The text below walks through data of patent US12064464B2, “Plantaricin NC8 alpha beta markedly enhances the effects of antibiotics” (priority 2018, dated 2024).

Entries after “also recorded” stand apart in the source; their conditions may differ.

Data set [1] has as its system human erythrocytes. The experiment in a line: Hemolysis. The following applies: 0.5-50 μM, 1 h; listed as L-PLNC8 αβ. It counts as cell-based. How it is done:
The hemolytic activity of the peptides was investigated by collecting blood from healthy volunteers in heparinized vacutainers. The blood was centrifuged at 600×g for 5 min and the erythrocyte pellet was washed three times in PBS. The cells were then suspended in PBS and added to 96-well plates (15% erythrocyte suspension/well), containing the peptides with two-fold serial dilution. The plates were incubated for 1 h at 37° C. followed by centrifugation for 5 min at 900×g and measurement of the supernatants at 540 nm. Haemolytic activity (%) was calculated by subtracting the negative control from all values and normalization against the positive control (0.5% Triton X-100), that was set to 100%. All experiments, each in duplicate, were repeated three times.

Data set [2] deals with Streptococcus spp (S. mutans, S. constellatus, S. anginosus). The experiment in a line: Sytox Green uptake (membrane permeabilization). It counts as cell-based. The following applies: 5 μM, 2 min. How it is done:
(§1) The fluorescent dye Sytox® Green, which can only cross damaged membranes and fluoresce upon binding to nucleic acids, was used to study the antimicrobial activity of PLNC8 αβ on S. epidermidis, S. aureus (MSSA, MRSA) and Streptococcus spp. The bacteria were washed and resuspended in Krebs-Ringer Glucose buffer (KRG) (120 mM NaCl, 4.9 mM KCl, 1.2 mM MgSO4, 1.7 mM KH2PO4, 8.3 mM Na2HPO4, and 10 mM glucose, pH 7.3) and incubated in the presence or absence of different combinations of PLNC8 αβ in 96-well microtiter plates for 2 min. Images were captured with Olympus BX41 at 40× magnification.

In data set [3] the test system is keratinocytes infected by S. aureus. The experiment in a line: IncuCyte live-cell analysis of infected keratinocytes. It counts as cell-based, human. The protocol: HaCaT cells were cultured overnight in a 24-well plate at a seed-count of 2×10^5 cells per well. […] Co-stimulation was performed by infection of human keratinocytes, in the presence or absence of PLNC8 αβ, for 24 h, or infection of the cells for 1 h followed by addition of different concentrations of PLNC8 αβ for 6 h. Furthermore, infection of keratinocytes, with or without PLNC8 αβ, were monitored in real-time for 72 hours using IncuCyte Live-cell Analysis System. Bacterial load was quantified by measuring the fluorescence of green fluorescent protein (GFP) and cell viability was determined by measuring the fluorescent dye Draq7 that stains nuclei of dead cells.

Data set [4] relates to S. aureus (MSSA and MRSA). The experiment in a line: Sytox Green lysis and time-kill assay. The format is cell-based, Staphylococcus aureus. How it is done: as §1

B1: PLNC8 αβ: two-peptide class IIb bacteriocin of L. plantarum NC8: PLNC8 α (SEQ ID NO 1) with PLNC8 β (SEQ ID NO 2) (peptide)
alpha: DLTTKLWSSWGYYLGKKARWNLKHPYVQF
beta: SVPTSVYTLGIKILWSAYKHRKTIEKSFNKGFYH
modifications: Lactobacillus plantarum NC8
On to B1, for which, in data set [1], the hemolytic activity result is listed as “no hemolytic activity was observed; also recorded: low hemolytic activity”. The “relative susceptibility of Streptococcus species” value in data set [2] is “S. constellatus and S. anginosus were more susceptible to PLNC8 αβ than S. mutans”. For the same molecule, in data set [3] (S. aureus MOI:0.1), the “bacterial growth (GFP fluorescence) prevented and delayed” value is recorded as “up to 38 h”; the “time for which a single dose prevented bacterial growth and protected the cells” value is reported as “up to 42 h”. Moreover, the “time for which a single dose prevented bacterial growth and protected the cells” value in data set [3] (S. aureus MOI:1) was “up to 32 h”. Moreover, the “lysis and killing of S. aureus” value in data set [4] was “dose-dependently and rapidly lysed and killed S. aureus”.
